According to article PMC3084036 (Journal of molecular biology, 2011):
Blank lines part the entries; values can stand above or below the molecule they belong to.

How the values were obtained:
[1] = molecular target: chicken VE-cadherin EC1-2, wild type (chicken); test: AUC
[2] = molecular target: human VE-cadherin EC1-2, wild type (human); test: AUC
[3] = molecular target: human VE-cadherin EC1-5 ectodomain, wild type, glycosylated (human); test: AUC
[4] = molecular target: human VE-cadherin EC3-4, wild type, bacterially produced (human); test: SEC
[5] = molecular target: human VE-cadherin EC3-4, wild type, bacterially produced (human); test: AUC
[6] = molecular target: mouse VE-cadherin EC1-2, wild type (mouse); test: AUC
[7] = molecular target: mouse cadherin-9 EC1-2, wild type (mouse); test: AUC
[8] = molecular target: mouse cadherin-10 EC1-2, wild type (mouse); test: AUC
AUC = molecular target: the molecule itself; test: AUC

Kd [1]: 1.63 µM
Molecule: chicken VE-cadherin EC1-2, wild type (domain or fragment)

Kd [2]: 4.38 µM
Molecule: human VE-cadherin EC1-2, wild type (domain or fragment)

stoichiometry N [4]: 2 | Kd [5]: 1.93 µM
Molecule: human VE-cadherin EC3-4, wild type, bacterially produced (domain or fragment)

Kd [6]: 2.22 µM
Molecule: mouse VE-cadherin EC1-2, wild type (domain or fragment)

Kd [8]: 42.2 µM
Molecule: mouse cadherin-10 EC1-2, wild type (domain or fragment)

More lines, now with the values behind:

Molecule: human VE-cadherin EC1-5 ectodomain, wild type, glycosylated (domain or fragment)
Kd [3]: 1.03 µM

Molecule: mouse cadherin-9 EC1-2, wild type (domain or fragment)
Kd [7]: 17 µM

B1: chicken VE-cadherin EC1-5 ectodomain, wild type, glycosylated (domain or fragment)
chain: DWIWNRMHIREEIDSPLPHHVGKLTSSVGNKNAMYIIEGESANTIFKVQGYDGDIYAFERLDREKKAEYELTAHIIDRRNNRSLEPPSKFIIKVSDINDNAPIFVQKIFNGSVPEMSRLGTSVTKVTAEDADDPTVAGHATVTYQIIKGNEYFTVDDSGVIFTARADLDRESQSAYEIIVKAKDALGLTGESSTATVIIRLTDINDNFPVFKHPSFHFRVPENISVGGEVGRVKVEDIDEPQHRNTKYSFVRGDYRDTFEIIANPFTNEGIIRPKKPLDFEKVAEYRFDIEATDHNVNPAYYKPGGSRSISTITIEVTDVDEPPVFTKLSYEFKVRENDPEIKTLGSVWAHDPDAAKRKIRFARRRASPNGDYVRVSDSGIIQLPKPLDREFSSLYNITVAAQEILEDGRLSDRESHAQVHVIVTDENDNAPELVYPEEPRVCENAAPGKVIIRISATDKDEISPGGFFTYSLTTEDSNFSLTENPDNTANITVKDGQFNRELAKIHYLPVIISDNGNPELSSTNTLVISVCKCNEKGDFTFCEE
modifications: glycosylated (N-linked and O-linked sugar)
Kd (AUC): 1.14 ± 0.04 µM

B2: mouse cadherin-8 EC1-3, wild type (domain or fragment)
chain: GWVWNQMFVLEEFSGPEPILVGRLHTDLDPGSKKIKYILSGDGAGTIFQINDITGDIHAIKRLDREEKAEYTLTAQAVDFETNKPLEPPSEFIIKVQDINDNAPEFLNGPYHATVPEMSILGTSVTNVTATDADDPVYGNSAKLVYSILEGQPYFSIEPETAIIKTALPNMDREAKEEYLVVIQAKDMGGHSGGLSGTTTLTVTLTDVNDNPPKFAQSLYHFSVPEDVVLGTAIGRVKANDQDIGENAQSSYDIIDGDGTALFEITSDAQAQDGVIRLRKPLDFETKKSYTLKVEAANIHIDPRFSSRGPFKDTATVKIVVEDADEPPVF
Kd (AUC): 15 ± 0.4 µM

B3: mouse cadherin-11 EC1-2, wild type (domain or fragment)
chain: GWVWNQFFVIEEYTGPDPVLVGRLHSDIDSGDGNIKYILSGEGAGTIFVIDDKSGNIHATKTLDREERAQYTLMAQAVDRDTNRPLEPPSEFIVKVQDINDNPPEFLHEIYHANVPERSNVGTSVIQVTASDADDPTYGNSAKLVYSILEGQPYFSVEAQTGIIRTALPNMDREAKEEYHVVIQAKDMGGHMGGLSGTTKVTITLTD
Kd (AUC): 33.8 ± 0.2 µM

B4: chicken cadherin-6b EC1-2, wild type (domain or fragment)
chain: SWMWNQFFLLEEYTGTDYQYVGKLHSDQDKGDGSLKYILSGDGAGDLFIINENTGDIQATKRLDREEKPVYILRAQAINRRTGRPVEPESEFIIKIHDINDNEPMFTKDVYNASIPEMSDVGTFVVQVTATDADDPTYGNSAKVVYSILQGQPYFSVESETGIIKTALLNMDRENREQYQVVIQAKDMGGQMGGLSGTTTVNITLTDVNDNPPRF
Kd (AUC): 9.2 ± 0.6 µM
